# Experimental data taken from patent US20260049138A1 (Chugai, published 2026).
# Residue numbers refer to the chain shown, from its start. Names and notes keep the numbering of the source.
# B1: CE115HA000 H35F one-arm antibody (antibody, human IgG1, kappa, L234A L235A, N297A, name in Kabat numbering)
# heavy: QVQLVESGGGVVQPGRSLRLSCAASGFTFSNAWMFWVRQAPGKGLEWVAQIKAKSNNYATYYAESVKGRFTISRDDSKNSLYLQMNSLKTEDTAVYYCRYVHYGAYYGVDAWGQGTTVTVSSASTKGPSVFPLAPSSKSTSGGTAALGCLVKDYFPEPVTVSWNSGALTSGVHTFPAVLQSSGLYSLSSVVTVPSSSLGTQTYICNVNHKPSNTKVDKKVEPKSCDKTHTCPPCPAPEAAGGPSVFLFPPKPKDTLMISRTPEVTCVVVDVSHEDPEVKFNWYVDGVEVHNAKTKPREEQYASTYRVVSVLTVLHQDWLNGKEYKCKVSNKALPAPIEKTISKAKGQPREPQVYTLPPSRCELTKNQVSLSCAVKGFYPSDIAVEWESNGQPENNYKTTPPVLDSDGSFFLVSKLTVDKSRWQQGNVFSCSVMHEALHNHYTQKSLSLSPDYKDDDDK
# chain: EPKSSDKTHTCPPCPAPELLGGPSVFLFPPKPKDTLMISRTPEVTCVVVDVSHEDPEVKFNWYVDGVEVHNAKTKPREEQYNSTYRVVSVLTVLHQDWLNGKEYKCKVSNKALPAPIEKTISKAKGQPREPQVCTLPPSRDELTKNQVSLWCLVKGFYPSDIAVEWESNGQPENNYKTTPPVLDSDGSFFLYSKLTVDKSRWQQGNVFSCSVMHEALHNRYTQKSLSLSP
# light: DIVMTQSPLSLPVTPGEPASISCRSSQSLVHSNRNTYLHWYQQKPGQAPRLLIYKVSNRFSGVPDRFSGSGSGTDFTLKISRVEAEDVGVYYCGQGTQVPYTFGQGTKLEIKRTVAAPSVFIFPPSDEQLKSGTASVVCLLNNFYPREAKVQWKVDNALQSGNSQESVTEQDSKDSTYSLSSTLTLSKADYEKHKVYACEVTHQGLSSPVTKSFNRGEC
# B2: CE115HA000 H96G one-arm antibody (antibody, human IgG1, kappa, L234A L235A, N297A, name in Kabat numbering)
# heavy: B1 heavy with F35H, H102G
# chain: B1 chain
# light: B1 light
# B3: CE115HA000 K52F one-arm antibody (antibody, human IgG1, kappa, L234A L235A, N297A, name in Kabat numbering)
# heavy: B1 heavy with F35H, K52F
# chain: B1 chain
# light: B1 light
# B4: CE115HA000 H96K one-arm antibody (antibody, human IgG1, kappa, L234A L235A, N297A, name in Kabat numbering)
# heavy: B1 heavy with F35H, H102K
# chain: B1 chain
# light: B1 light
# B5: CE115HA000 K52N one-arm antibody (antibody, human IgG1, kappa, L234A L235A, N297A, name in Kabat numbering)
# heavy: B1 heavy with F35H, K52N
# chain: B1 chain
# light: B1 light
# B6: CE115HA000 H96L one-arm antibody (antibody, human IgG1, kappa, L234A L235A, N297A, name in Kabat numbering)
# heavy: B1 heavy with F35H, H102L
# chain: B1 chain
# light: B1 light
# B7: CE115HA000 K43Q one-arm antibody (antibody, human IgG1, kappa, L234A L235A, N297A, name in Kabat numbering)
# heavy: B1 heavy with F35H, K43Q
# chain: B1 chain
# light: B1 light
# B8: CE115HA000 H35K one-arm antibody (antibody, human IgG1, kappa, L234A L235A, N297A, name in Kabat numbering)
# heavy: B1 heavy with F35K
# chain: B1 chain
# light: B1 light
# B9: CE115HA000 H35I one-arm antibody (antibody, human IgG1, kappa, L234A L235A, N297A, name in Kabat numbering)
# heavy: B1 heavy with F35I
# chain: B1 chain
# light: B1 light
# B10: CE115HA000 K52I one-arm antibody (antibody, human IgG1, kappa, L234A L235A, N297A, name in Kabat numbering)
# heavy: B1 heavy with F35H, K52I
# chain: B1 chain
# light: B1 light
# B11: CE115HA000 H96S one-arm antibody (antibody, human IgG1, kappa, L234A L235A, N297A, name in Kabat numbering)
# heavy: B1 heavy with F35H, H102S
# chain: B1 chain
# light: B1 light
# B12: CE115HA000 H35G one-arm antibody (antibody, human IgG1, kappa, L234A L235A, N297A, name in Kabat numbering)
# heavy: B1 heavy with F35G
# chain: B1 chain
# light: B1 light
# B13: CE115HA000 K52D one-arm antibody (antibody, human IgG1, kappa, L234A L235A, N297A, name in Kabat numbering)
# heavy: B1 heavy with F35H, K52D
# chain: B1 chain
# light: B1 light
# B14: CE115HA000 H96Y one-arm antibody (antibody, human IgG1, kappa, L234A L235A, N297A, name in Kabat numbering)
# heavy: B1 heavy with F35H, H102Y
# chain: B1 chain
# light: B1 light
# B15: CE115HA000 H35L one-arm antibody (antibody, human IgG1, kappa, L234A L235A, N297A, name in Kabat numbering)
# heavy: B1 heavy with F35L
# chain: B1 chain
# light: B1 light
# B16: CE115HA000 H35M one-arm antibody (antibody, human IgG1, kappa, L234A L235A, N297A, name in Kabat numbering)
# heavy: B1 heavy with F35M
# chain: B1 chain
# light: B1 light
# B17: CE115HA000 K52H one-arm antibody (antibody, human IgG1, kappa, L234A L235A, N297A, name in Kabat numbering)
# heavy: B1 heavy with F35H, K52H
# chain: B1 chain
# light: B1 light
# B18: CE115HA000 I51D one-arm antibody (antibody, human IgG1, kappa, L234A L235A, N297A, name in Kabat numbering)
# heavy: B1 heavy with F35H, I51D
# chain: B1 chain
# light: B1 light
# B19: CE115HA000 H96Q one-arm antibody (antibody, human IgG1, kappa, L234A L235A, N297A, name in Kabat numbering)
# heavy: B1 heavy with F35H, H102Q
# chain: B1 chain
# light: B1 light
# B20: CE115HA000 K43E one-arm antibody (antibody, human IgG1, kappa, L234A L235A, N297A, name in Kabat numbering)
# heavy: B1 heavy with F35H, K43E
# chain: B1 chain
# light: B1 light
# B21: CE115HA000 H35W one-arm antibody (antibody, human IgG1, kappa, L234A L235A, N297A, name in Kabat numbering)
# heavy: B1 heavy with F35W
# chain: B1 chain
# light: B1 light
# B22: CE115HA000 H35N one-arm antibody (antibody, human IgG1, kappa, L234A L235A, N297A, name in Kabat numbering)
# heavy: B1 heavy with F35N
# chain: B1 chain
# light: B1 light
# B23: CE115HA000 H35R one-arm antibody (antibody, human IgG1, kappa, L234A L235A, N297A, name in Kabat numbering)
# heavy: B1 heavy with F35R
# chain: B1 chain
# light: B1 light
# B24: CE115HA000 H96P one-arm antibody (antibody, human IgG1, kappa, L234A L235A, N297A, name in Kabat numbering)
# heavy: B1 heavy with F35H, H102P
# chain: B1 chain
# light: B1 light
# B25: CE115HA000 K52E one-arm antibody (antibody, human IgG1, kappa, L234A L235A, N297A, name in Kabat numbering)
# heavy: B1 heavy with F35H, K52E
# chain: B1 chain
# light: B1 light
# B26: CE115HA000 H35T one-arm antibody (antibody, human IgG1, kappa, L234A L235A, N297A, name in Kabat numbering)
# heavy: B1 heavy with F35T
# chain: B1 chain
# light: B1 light
# B27: CE115HA000 H35S one-arm antibody (antibody, human IgG1, kappa, L234A L235A, N297A, name in Kabat numbering)
# heavy: B1 heavy with F35S
# chain: B1 chain
# light: B1 light
# B28: CE115HA000 H35Y one-arm antibody (antibody, human IgG1, kappa, L234A L235A, N297A, name in Kabat numbering)
# heavy: B1 heavy with F35Y
# chain: B1 chain
# light: B1 light
# B29: CE115HA000 H35V one-arm antibody (antibody, human IgG1, kappa, L234A L235A, N297A, name in Kabat numbering)
# heavy: B1 heavy with F35V
# chain: B1 chain
# light: B1 light
# B30: CE115HA000 H96R one-arm antibody (antibody, human IgG1, kappa, L234A L235A, N297A, name in Kabat numbering)
# heavy: B1 heavy with F35H, H102R
# chain: B1 chain
# light: B1 light
# B31: CE115HA000 H35Q one-arm antibody (antibody, human IgG1, kappa, L234A L235A, N297A, name in Kabat numbering)
# heavy: B1 heavy with F35Q
# chain: B1 chain
# light: B1 light
# B32: CE115HA000 I51E one-arm antibody (antibody, human IgG1, kappa, L234A L235A, N297A, name in Kabat numbering)
# heavy: B1 heavy with F35H, I51E
# chain: B1 chain
# light: B1 light
# Biological target: T1, CD3ε homodimer protein (human, UniProt P07766 23-126, limits assumed, sulfo-tag or biotin label in the ECL assays; amine-coupled to the chip in SPR)
# T1 construct: also called human CD3ε homodimer protein; CD3 (CD3ε)
# T1 sequence (P07766 23-126 limits assumed): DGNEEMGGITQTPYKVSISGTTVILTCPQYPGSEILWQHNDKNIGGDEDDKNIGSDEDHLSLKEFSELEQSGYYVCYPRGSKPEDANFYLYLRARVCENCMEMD
# Experiment: SPR Biacore T200; CD3ε homodimer on CM4 chip;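 also: Single-residue variant antibodies injected as analyte over CD3ε homodimer immobilized by amine coupling, run at 25 °C in HBS-EP+ buffer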
row,ratio of amounts bound Z=Y/X (altered form / CE115HA000),Binder
1,0.21,B1
2,0.43,B2
3,0.17,B3
4,0.35,B4
5,0.34,B5
6,0.14,B6
7,0.99,B7
8,0.15,B8
9,0.12,B9
10,0.33,B10
11,0.44,B11
12,0.22,B12
13,0.25,B13
14,0.17,B14
15,0.11,B15
16,0.29,B16

row,ratio of amounts bound Z=Y/X (altered form / CE115HA000),Binder
1,0.22,B17
2,0.29,B18
3,0.42,B19
4,0.9,B20
5,0.22,B21
6,0.35,B22
7,0.14,B23
8,0.12,B24
9,0.26,B25
10,0.26,B26
11,0.23,B27
12,0.16,B28
13,0.22,B29
14,0.46,B30
15,0.13,B31
16,0.55,B32
